B1: SLC2A12 (parent)
chain: LTLVFFVQITGQPNILFYASTVLK

Variants of: B1
Assay: protein stability index of a GFP-peptide fusion (GPS, HEK-293T) (PSI 1-6); higher = more stable
Settings: c terminus: a fixed tail appended
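Note: lentivirally expressed fusions sorted by FACS into six bins by GFP to DsRed ratio, PSI derived from sequencing read proportions per bin multiplied by bin number.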

Protein stability index: each site, then its substitutions
K24: D 2.73, P 1.8, F 3.17, W 2.76, V 3.5, I 2.92, Q 4.06, S 3.98
N14: H 2.96, A 2.73, R 3.96, D 3.93, S 2.14, G 3.5
A19: T 2.42, K 2.5, V 2.66, R 2.55
Q12: N 1.94, D 2.94, V 2.91, S 2.21, E 2.25, L 3.8
T2: I 4.67, P 2.78, K 3.54, Y 3.04, D 2.45, G 2.15, N 3.71, C 2.24, M 3.56, F 2.44
F5: E 2.7, I 2.45, N 2.65, V 2.47, Y 2.52, H 1.93
T10: F 2.92, N 1.88, D 2.75, I 3.61, K 3.77, Y 3.46, H 2.17, E 2.11, P 5.16
G11: D 3.42, F 2.92, L 2.33, A 2.87, V 2.45, Y 3.04
L1: E 2.27, F 4.63, V 2.75, G 4.08, I 2.33, T 3.79, S 3.18, H 2.7, A 2.8, D 2.23
Q8: N 3.92, I 3.94, G 2.93, H 3.26, T 3.53, P 2.51, A 4.06, L 2.46, C 3.19, S 2.51, E 3.4
L3: R 2.29, Q 3.25, W 4.1, S 3.34, N 2.42, A 3.64, H 2.75, P 3.17, D 2.9, V 4.79, G 2.17
T21: P 3.23, I 3.71, Q 2.97, M 3.09, L 2.38, S 3.13
I15: Q 2.46, Y 3.83, S 4.88, K 2.67, L 4.71, F 3.04
L16: A 4.05, H 1.6, C 2.98, G 2.02
I9: E 4.04, A 2.57, R 3.42, F 2.63, S 3.01, M 3.4
F6: A 2.9, Q 4.18, G 3.11, L 2.26
V22: I 3.81, C 2.2, Q 4.34, A 4.16, F 2.78
P13: S 3.1, G 5.6, A 3.85, T 2.59, H 3.43, R 3.44, E 3.73, Y 2.2
F17: M 2.52, K 3.38, N 2.66, S 2.69, Q 3.16, T 3.28
S20: P 2.92, E 3.34, T 4.03, M 2.78, Y 3.22, C 2.27, N 2.84, I 4.31, K 3.97
V4: W 2.98, Q 3.56, C 3.38, G 4, L 2.65
L23: Y 3.92, H 2.38, V 2.58, S 3.26, T 3.09, W 1.83
Y18: I 2.47, M 2.05, P 4.25, A 2.49, L 3.04, D 2.93, F 3.63, N 1.59
V7: Y 3.38, K 1.59, S 2.3, W 2.61, A 2.03, H 3.64, D 3.27
